Starred links: 1 amine or outer side, 2 acyl side, 3 side chain; linkers in the order of their positions; H or OH if unused. Positions of bridges follow the written chain, without caps; N, C: chain ends. Non-standard residues stand in square brackets, D forms with d. dPhe(4-CF3) = N[C@H](Cc1ccc(C(F)(F)F)cc1)C(=O)O; dLys(N3) = [N-]=[N+]=NCCCC[C@@H](N)C(=O)O; NMeW = CN[C@@H](Cc1c[nH]c2ccccc12)C(=O)O; Lys(N3) = [N-]=[N+]=NCCCC[C@H](N)C(=O)O; mXylylene = c1cc(C[*:1])cc(C[*:2])c1; NMeH = CN[C@@H](Cc1c[nH]cn1)C(=O)O; NMeR = CN[C@@H](CCCNC(=N)N)C(=O)O; dNMeF = CN[C@H](Cc1ccccc1)C(=O)O; hArg = N=C(N)NCCCC[C@H](N)C(=O)O; S5 = C=CCCC[C@](C)(N)C(=O)O; Nle = CCCC[C@H](N)C(=O)O; Pra = C#CC[C@H](N)C(=O)O
B1: KR-054 (peptide)
peptide: Ac-[Nle][Lys(N3)]H[dF][hArg]W[Pra]K-NH2
modifications: triazole 2-7; not fully specified; printed as Ac-Nle-[Lys(N3)-His-DPhe-HArg-Trp-Pra]-Lys-NH2
B2: KR-069 (peptide)
peptide: Ac-[Nle][dLys(N3)]H[dF]RW[Pra]K-NH2
modifications: triazole 2-7; not fully specified; printed as Ac-Nle-[DLys(N3)-His-DPhe-Arg-Trp-Pra]-Lys-NH2
B3: KR-035 (peptide)
peptide: Ac-[Nle]EHFRWGK-NH2
SMILES: CCCC[C@H](NC(C)=O)C(=O)N[C@@H](CCC(=O)O)C(=O)N[C@@H](Cc1c[nH]cn1)C(=O)N[C@@H](Cc1ccccc1)C(=O)N[C@@H](CCCNC(=N)N)C(=O)N[C@@H](Cc1c[nH]c2ccccc12)C(=O)NCC(=O)N[C@@H](CCCCN)C(N)=O
B4: KR-012 (peptide)
peptide: Ac-EHFRWGC-NH2
modifications: bridge N-7; not fully specified (bridges); printed as Cyclo(-Ac-Glu-His-Phe-Arg-Trp-Gly-Cys)-NH2
B5: KR-011 (peptide)
peptide: {CH2CO}-EHFRWC-NH2
modifications: thioether N-6
SMILES: N=C(N)NCCC[C@@H]1NC(=O)[C@H](Cc2ccccc2)NC(=O)[C@H](Cc2c[nH]cn2)NC(=O)[C@H](CCC(=O)O)NC(=O)CSC[C@@H](C(N)=O)NC(=O)[C@H](Cc2c[nH]c3ccccc23)NC1=O

Target: human recombinant MC5R (CHO-K1/Ga15 stable cell line, GenScript) (human, UniProt P33032 1-325)
Sequence (P33032 whole entry): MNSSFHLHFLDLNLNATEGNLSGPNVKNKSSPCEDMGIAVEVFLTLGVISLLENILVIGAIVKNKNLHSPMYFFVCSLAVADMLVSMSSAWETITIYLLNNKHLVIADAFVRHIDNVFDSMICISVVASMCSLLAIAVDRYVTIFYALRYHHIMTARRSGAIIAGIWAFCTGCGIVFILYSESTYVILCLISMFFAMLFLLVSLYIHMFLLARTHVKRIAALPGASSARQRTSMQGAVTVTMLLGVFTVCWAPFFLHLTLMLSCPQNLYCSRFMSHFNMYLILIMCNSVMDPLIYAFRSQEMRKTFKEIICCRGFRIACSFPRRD
Experiment: cell-based or functional assay

| MC5R IC50 [nM] | Binder |
| --- | --- |
| 739 | Ac-[Nle][S5]H[dF]RW[S5]-NH2 (staple 2-7) [KR-039] |
| 195 | Ac-[Nle][Lys(N3)][NMeH][dF][NMeR]W[Pra]-NH2 (triazole 2-7; not fully specified) [KR-052] |
| 44.3 | XXHFRWX (Ac-Nle-[Dab-His-DPhe-Arg-Trp-Dab] Linker: succinic acid-NH2) [KR-041] |
| 234 | Ac-[Nle][Lys(N3)]H[dF][NMeR][NMeW][Pra]-NH2 (triazole 2-7) [KR-050] |
| 1080 | Ac-SYSMEH[dNMeF]RWGKPV-NH2 [KR-025] |
| 48.8 | Ac-[Nle][Lys(N3)]H[dPhe(4-CF3)]RW[Pra]-NH2 (triazole 2-7) [KR-048] |
| 82.3 | B1 |
| 161 | B2 |
| 257 | Ac-[Nle]CH[dF]RWC-NH2 (linker 2-7 via mXylylene) [KR-040] |
| 404 | B3 |
| 237 | XXHFRWX (Ac-Nle-[Dab(N3)-His-DPhe-Arg-Trp-Dab(N3)] linkr: 3,3′-Oxybis[1-propyne]-NH2) [KR-042] |
| 98.9 | Ac-[Nle][Lys(N3)][NMeH][dF]R[NMeW][Pra]-NH2 (triazole 2-7) [KR-051] |
| 94.8 | Ac-[Nle][Lys(N3)]H[dF]R[NMeW][Pra]-NH2 (triazole 2-7) [KR-046] |
| 106 | Ac-[Nle][Lys(N3)]H[dF]RW[Pra]K-NH2 (triazole 2-7) [KR-037] |

Target: human recombinant MC3R (CHO-K1/Gα15 stable cell line, GenScript) (human, UniProt P41968 1-323)
Sequence (P41968 whole entry): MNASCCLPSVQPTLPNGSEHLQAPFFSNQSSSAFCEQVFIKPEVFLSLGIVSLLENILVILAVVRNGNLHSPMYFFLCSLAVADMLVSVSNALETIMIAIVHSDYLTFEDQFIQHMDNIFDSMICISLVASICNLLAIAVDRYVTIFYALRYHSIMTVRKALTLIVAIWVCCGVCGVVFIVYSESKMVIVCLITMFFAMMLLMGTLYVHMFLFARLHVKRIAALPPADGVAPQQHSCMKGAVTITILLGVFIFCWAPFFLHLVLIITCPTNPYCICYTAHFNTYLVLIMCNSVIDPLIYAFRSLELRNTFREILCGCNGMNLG
Experiment: cell-based or functional assay

| MC3R IC50 [nM] | Binder |
| --- | --- |
| 426 | Ac-[Nle][S5]H[dF]RW[S5]-NH2 (staple 2-7) [KR-039] |
| > 50000 | Ac-[Nle][Lys(N3)][NMeH][dF][NMeR]W[Pra]-NH2 (triazole 2-7; not fully specified) [KR-052] |
| 24.1 | XXHFRWX (Ac-Nle-[Dab-His-DPhe-Arg-Trp-Dab] Linker: succinic acid-NH2) [KR-041] |
| 5570 | B4 |
| 4480 | Ac-[Nle][Lys(N3)]H[dF][NMeR][NMeW][Pra]-NH2 (triazole 2-7) [KR-050] |
| > 50000 | Ac-SYSMEH[dNMeF]RWGKPV-NH2 [KR-025] |
| > 50000 | Ac-[Nle][Lys(N3)]H[dPhe(4-CF3)]RW[Pra]-NH2 (triazole 2-7) [KR-048] |
| 67.8 | B1 |
| 515 | Ac-SYSMEHFR[NMeW]GKPV-NH2 [KR-024] |
| 276 | B3 |
| 225 | XXHFRWX (Ac-Nle-[Dab(N3)-His-DPhe-Arg-Trp-Dab(N3)] linkr: 3,3′-Oxybis[1-propyne]-NH2) [KR-042] |
| > 50000 | B5 |
| 77.5 | Ac-[Nle][Lys(N3)][NMeH][dF]R[NMeW][Pra]-NH2 (triazole 2-7) [KR-051] |
| 98.8 | Ac-[Nle][Lys(N3)]H[dF]R[NMeW][Pra]-NH2 (triazole 2-7) [KR-046] |
| 62.9 | Ac-[Nle][Lys(N3)]H[dF]RW[Pra]K-NH2 (triazole 2-7) [KR-037] |

Target: human recombinant MC4R (CHO-K1/Gα15 stable cell line, GenScript) (human, UniProt P32245 1-332)
Sequence (P32245 whole entry): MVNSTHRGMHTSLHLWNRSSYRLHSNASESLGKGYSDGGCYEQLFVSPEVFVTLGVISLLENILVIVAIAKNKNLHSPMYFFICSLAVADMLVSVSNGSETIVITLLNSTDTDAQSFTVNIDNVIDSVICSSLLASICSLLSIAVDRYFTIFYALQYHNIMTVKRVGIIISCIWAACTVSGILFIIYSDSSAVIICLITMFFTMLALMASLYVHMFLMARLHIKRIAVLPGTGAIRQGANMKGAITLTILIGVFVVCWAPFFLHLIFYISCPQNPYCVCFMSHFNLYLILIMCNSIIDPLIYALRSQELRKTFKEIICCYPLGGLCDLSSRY
Experiment: cell-based or functional assay

| MC4R IC50 [nM] | Binder |
| --- | --- |
| 35.4 | Ac-[Nle][S5]H[dF]RW[S5]-NH2 (staple 2-7) [KR-039] |
| 122 | Ac-[Nle][Lys(N3)][NMeH][dF][NMeR]W[Pra]-NH2 (triazole 2-7; not fully specified) [KR-052] |
| 13.8 | XXHFRWX (Ac-Nle-[Dab-His-DPhe-Arg-Trp-Dab] Linker: succinic acid-NH2) [KR-041] |
| 16 | B4 |
| 242 | Ac-[Nle][Lys(N3)]H[dF][NMeR][NMeW][Pra]-NH2 (triazole 2-7) [KR-050] |
| 183 | Ac-[Nle][Lys(N3)]H[dPhe(4-CF3)]RW[Pra]-NH2 (triazole 2-7) [KR-048] |
| 31.9 | B1 |
| 30.9 | B2 |
| 59.6 | B3 |
| 109 | XXHFRWX (Ac-Nle-[Dab(N3)-His-DPhe-Arg-Trp-Dab(N3)] linkr: 3,3′-Oxybis[1-propyne]-NH2) [KR-042] |
| 104 | B5 |
| 96.2 | Ac-[Nle][Lys(N3)][NMeH][dF]R[NMeW][Pra]-NH2 (triazole 2-7) [KR-051] |
| 39.3 | Ac-[Nle][Lys(N3)]H[dF]R[NMeW][Pra]-NH2 (triazole 2-7) [KR-046] |
| 35 | Ac-[Nle][Lys(N3)]H[dF]RW[Pra]K-NH2 (triazole 2-7) [KR-037] |

Target: human recombinant MC1R (CHO-K1 stable cell line, GenScript) (human, UniProt Q01726 1-317)
Sequence (Q01726 whole entry): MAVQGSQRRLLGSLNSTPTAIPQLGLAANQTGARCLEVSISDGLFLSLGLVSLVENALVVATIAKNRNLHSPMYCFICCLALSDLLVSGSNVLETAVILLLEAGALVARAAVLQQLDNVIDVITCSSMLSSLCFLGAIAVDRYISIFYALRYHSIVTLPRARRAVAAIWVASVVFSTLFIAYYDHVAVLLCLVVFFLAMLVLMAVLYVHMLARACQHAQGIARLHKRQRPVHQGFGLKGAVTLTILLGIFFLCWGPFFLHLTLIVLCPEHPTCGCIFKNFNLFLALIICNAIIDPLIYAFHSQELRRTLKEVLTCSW
Experiment: cell-based or functional assay

| MC1R IC50 [nM] | Binder |
| --- | --- |
| 1.95 | Ac-[Nle][S5]H[dF]RW[S5]-NH2 (staple 2-7) [KR-039] |
| 2.68 | Ac-[Nle][Lys(N3)][NMeH][dF][NMeR]W[Pra]-NH2 (triazole 2-7; not fully specified) [KR-052] |
| 0.04 | XXHFRWX (Ac-Nle-[Dab-His-DPhe-Arg-Trp-Dab] Linker: succinic acid-NH2) [KR-041] |
| 20 | B4 |
| 0.081 | Ac-[Nle][Lys(N3)]H[dF][NMeR][NMeW][Pra]-NH2 (triazole 2-7) [KR-050] |
| 17.8 | Ac-SYSMEH[dNMeF]RWGKPV-NH2 [KR-025] |
| 0.18 | Ac-[Nle][Lys(N3)]H[dPhe(4-CF3)]RW[Pra]-NH2 (triazole 2-7) [KR-048] |
| 0.093 | B1 |
| 16.5 | B2 |
| 0.124 | Ac-[Nle]CH[dF]RWC-NH2 (linker 2-7 via mXylylene) [KR-040] |
| 0.88 | Ac-SYSMEHFR[NMeW]GKPV-NH2 [KR-024] |
| 0.36 | B3 |
| 0.16 | XXHFRWX (Ac-Nle-[Dab(N3)-His-DPhe-Arg-Trp-Dab(N3)] linkr: 3,3′-Oxybis[1-propyne]-NH2) [KR-042] |
| 128 | B5 |
| 0.043 | Ac-[Nle][Lys(N3)][NMeH][dF]R[NMeW][Pra]-NH2 (triazole 2-7) [KR-051] |
| 0.28 | Ac-[Nle][Lys(N3)]H[dF]R[NMeW][Pra]-NH2 (triazole 2-7) [KR-046] |
| 0.024 | Ac-[Nle][Lys(N3)]H[dF]RW[Pra]K-NH2 (triazole 2-7) [KR-037] |

Reference: US20260152527A1 (SIGHTSTREAM BIOTHERAPEUTICS, published 2026)
